According to publication doi:10.1101/2023.04.12.536520, “Structural bases for the Charcot–Marie–Tooth disease induced by single amino acid substitutions of myelin protein zero” (bioRxiv, 2023):

B1: human MPZ-ECD with a C-terminal histidine-tag (ECD-His), wild type (domain or fragment)
chain: MGIVVYTDREVHGAVGSRVTLHCSFWSSEWVSDDISFTWRYQPEGGRDAISIFHYAKGQPYIDEVGTFKERIQWVGDPRWKDGSIVIHNLDYSDNGTFTCDVKNPPDIVGKTSQVTLYVFEKVPTR
notes: two artificial amino acids at the N-terminus; myelin protein zero (MPZ, P0), human, extracellular domain I1 through V121; I1 is residue 30 of the precursor P25189; linker between the ECD and the His6-tag; Non-glycosylated; also called hMPZ-ECD-His; WT; not shown: His6, C-terminal, kept
B2: human MPZ-ECD without a histidine-tag (ECD) (domain or fragment)
chain: MGIVVYTDREVHGAVGSRVTLHCSFWSSEWVSDDISFTWRYQPEGGRDAISIFHYAKGQPYIDEVGTFKERIQWVGDPRWKDGSIVIHNLDYSDNGTFTCDVKNPPDIVGKTSQVTLYVFEKV
notes: two artificial amino acids at the N-terminus; myelin protein zero (MPZ, P0), human, extracellular domain I1 through V121; I1 is residue 30 of the precursor P25189; Non-glycosylated; also called hMPZ-ECD
B3: ECD-His A47V variant (domain or fragment, human)
chain: MGIVVYTDREVHGAVGSRVTLHCSFWSSEWVSDDISFTWRYQPEGGRDVISIFHYAKGQPYIDEVGTFKERIQWVGDPRWKDGSIVIHNLDYSDNGTFTCDVKNPPDIVGKTSQVTLYVFEKVPTR
notes: two artificial amino acids at the N-terminus; myelin protein zero (MPZ, P0), human, extracellular domain I1 through V121; I1 is residue 30 of the precursor P25189; linker between the ECD and the His6-tag; CMT2-related substitution at the trans interface; not shown: His6, C-terminal, kept
B4: ECD-His H52R variant (domain or fragment, human)
chain: MGIVVYTDREVHGAVGSRVTLHCSFWSSEWVSDDISFTWRYQPEGGRDAISIFRYAKGQPYIDEVGTFKERIQWVGDPRWKDGSIVIHNLDYSDNGTFTCDVKNPPDIVGKTSQVTLYVFEKVPTR
notes: two artificial amino acids at the N-terminus; myelin protein zero (MPZ, P0), human, extracellular domain I1 through V121; I1 is residue 30 of the precursor P25189; linker between the ECD and the His6-tag; DSS-related substitution at the trans interface; not shown: His6, C-terminal, kept
B5: ECD-His R38A variant (domain or fragment, human)
chain: MGIVVYTDREVHGAVGSRVTLHCSFWSSEWVSDDISFTWAYQPEGGRDAISIFHYAKGQPYIDEVGTFKERIQWVGDPRWKDGSIVIHNLDYSDNGTFTCDVKNPPDIVGKTSQVTLYVFEKVPTR
notes: two artificial amino acids at the N-terminus; myelin protein zero (MPZ, P0), human, extracellular domain I1 through V121; I1 is residue 30 of the precursor P25189; linker between the ECD and the His6-tag; trans interface substitution; not shown: His6, C-terminal, kept
B6: ECD-His R45A variant (domain or fragment, human)
chain: MGIVVYTDREVHGAVGSRVTLHCSFWSSEWVSDDISFTWRYQPEGGADAISIFHYAKGQPYIDEVGTFKERIQWVGDPRWKDGSIVIHNLDYSDNGTFTCDVKNPPDIVGKTSQVTLYVFEKVPTR
notes: as for B5
B7: ECD-His D46V variant (domain or fragment, human)
chain: MGIVVYTDREVHGAVGSRVTLHCSFWSSEWVSDDISFTWRYQPEGGRVAISIFHYAKGQPYIDEVGTFKERIQWVGDPRWKDGSIVIHNLDYSDNGTFTCDVKNPPDIVGKTSQVTLYVFEKVPTR
notes: as for B3
B8: ECD-His D32N variant (domain or fragment, human)
chain: MGIVVYTDREVHGAVGSRVTLHCSFWSSEWVSDNISFTWRYQPEGGRDAISIFHYAKGQPYIDEVGTFKERIQWVGDPRWKDGSIVIHNLDYSDNGTFTCDVKNPPDIVGKTSQVTLYVFEKVPTR
notes: two artificial amino acids at the N-terminus; myelin protein zero (MPZ, P0), human, extracellular domain I1 through V121; I1 is residue 30 of the precursor P25189; linker between the ECD and the His6-tag; CMT1B-related substitution at the head-to-head interface; the recombinant protein was non-glycosylated; not shown: His6, C-terminal, kept
B9: ECD-His D32G variant (domain or fragment, human)
chain: MGIVVYTDREVHGAVGSRVTLHCSFWSSEWVSDGISFTWRYQPEGGRDAISIFHYAKGQPYIDEVGTFKERIQWVGDPRWKDGSIVIHNLDYSDNGTFTCDVKNPPDIVGKTSQVTLYVFEKVPTR
notes: two artificial amino acids at the N-terminus; myelin protein zero (MPZ, P0), human, extracellular domain I1 through V121; I1 is residue 30 of the precursor P25189; linker between the ECD and the His6-tag; CMT2-related substitution at the head-to-head interface; not shown: His6, C-terminal, kept
B10: ECD-His E68V variant (domain or fragment, human)
chain: MGIVVYTDREVHGAVGSRVTLHCSFWSSEWVSDDISFTWRYQPEGGRDAISIFHYAKGQPYIDEVGTFKVRIQWVGDPRWKDGSIVIHNLDYSDNGTFTCDVKNPPDIVGKTSQVTLYVFEKVPTR
notes: two artificial amino acids at the N-terminus; myelin protein zero (MPZ, P0), human, extracellular domain I1 through V121; I1 is residue 30 of the precursor P25189; linker between the ECD and the His6-tag; CMT2-related substitution at the cis interface; not shown: His6, C-terminal, kept

Target: the molecule itself
Experiment: SEC-MALS; ECD-His injected at 52 µM; Superdex 200 Increase 10/300 GL; standard buffer (20 mM Tris-HCl pH 7.4, 100 mM NaCl); room temperature; 8-mer to monomers

Stoichiometry N, 8:
B1

Target: the molecule itself
Experiment: SEC; free ECD or ECD-His variants; HiLoad Superdex 200 16/600 (Fig. 4A-C) or Superdex 200 Increase 10/300 (Fig. 3, Fig. S1); standard buffer (20 mM Tris-HCl pH 7.4, 100 mM NaCl); 4 °C; 8-mer to monomers

Stoichiometry N, 8:
B2
B3
B4
B5
B6
B7
B8
B9
B10
